Patent US11905559B2, “Materials and methods for controlling gene expression” (priority 2016, dated 2024)
Substitutions are numbered along the chain they refer to. Names may count otherwise. “And” between values parts separate entries of the source, which are not always exact repeats. Equal entries are not always repeated.

B1: m4: m4 mutant guanine sensing aptamer RNA (SEQ ID NO: 5); A59G/U67C in the P3 hairpin (nucleic acid)
chain: CACUCAUAUAAUCGCGUGGAUAUGGCACGCAAGUUUCUACCGGGCGCCGUAAACGUCCGACUAUGGGUG
modifications: RNA, backbone and methylation of C not given here
notes: A59G/U67C in the P3 hairpin
B2: m7: m7 mutant guanine sensing aptamer RNA (SEQ ID NO: 8); U25C in J1/2 (nucleic acid)
chain: B1 chain with U12C, G46A, C54U
modifications: RNA, backbone and methylation of C not given here
B3: m6: m6 mutant guanine sensing aptamer RNA (SEQ ID NO: 7); U67A, shorter P3 hairpin and larger L3 loop (nucleic acid)
chain: B1 chain with G46A, C54A
modifications: RNA, backbone and methylation of C not given here
notes: U67A, shorter P3 hairpin and larger L3 loop

Experiments:
[1] = Constant-force (CF) single-molecule optical tweezers folding assay of guanine-aptamer RNAs in guanine buffer; format: physicochemical; conditions: for Equilibrium force F^eq / Folding rate kf / Unfolding rate ku / Transition distance ΔX / ΔG (0): 3 mM Mg^2+; for ΔG (0): zero force
Excerpt: The aptamer folding was monitored in real time using a constant-force (CF) assay. Equilibrium sampling techniques provide unprecedented insights into the rare events in the course of folding that are otherwise difficult to identify. The technique also allows for determination of the kinetic rates that has not been fully investigated in the guanine riboswitch. The relative dynamics of the helices have been investigated in ensemble and smFRET experiments, which indicated a non-dynamic P1-P3, upon which the P2 helix switches conformations. As shown in FIG. 6A (left panel), the RNA oscillated between the linear and the hairpin conformations (E↔D↔C) at 13 pN. The distances ΔXED=7.1±0.4 nm and ΔXDC=7.9±0.4 nm correspond to the folding of a 17±1 nt (P2) and 19±1 nt (P3) respectively (FIGS. 7A-B). The conversion of distances to nucleotides in CF assay are described in Table 2.
A miniaturized dual beam optical tweezers instrument was constructed with a sampling rate of 0.4, 4 and 40 kHz. Typically, in the tweezers set up (FIGS. 2A-E), a single-molecule of RNA is held between two beads via ˜550 nucleotide (nt) long Handles A and B. Preparation of Handles and the RNA is described in the section above. The streptavidin coated polystyrene bead (diameter 1.5-1.9 μm, Spherotech Inc.) is fixed on a micropipette via suction, and the anti-digoxigenin coated bead (diameter 4.0-4.9 μm, Spherotech Inc.) is held in the dual counter-propagating laser beam. The trap stiffness, K is measured at 0.04-0.06 pN/nm from the power spectrum analysis of the Brownian motion of the trapped bead. For power spectrum analysis, a polystyrene bead with diameter ˜4.6 μm is trapped in the counter-propagating laser beam in aqueous buffer with a fixed trap position. […] The average from 10 beads yielded K˜0.049±0.0008 pN/nm, and the stoke's drag coefficient, y=0.0364±0.0002 pN. s/μm. […] However, the autocorrelation time (τ0) defined as the τ1=1/2πfc as described by Zoldak et al., “Ultrafast folding kinetics and cooperativity of villin headpiece in single-molecule force spectroscopy”. Proc. Natl. Acad. Sci. U.S.A 110, 18156 (2013) sets the detection limit for the observable kinetics, which is different from the sampling frequencies. […] The ACF for the time series of force signal, Fi, with sampling rate δ and N data points, is calculated as,
In a constant-force (CF) experiment, the RNA is held at a preset force through feedback control. The preset force typically fluctuated around the mean with a standard deviation ±0.15 pN. In this mode, data is recorded from 4-40 kHz to capture the fast intermediates. The plots are shown as extension vs. time (as in FIG. 6A). In force-jump (FJ) assay, the force is suddenly jumped from one force to another, and then held constant thereafter, as shown in FIGS. 23A-B.
All FR, CF and FJ experiments were carried out at an ambient temperature, 25±0.5° C. The buffer in the microfluidics contained 10 mM Tris-HCl, pH 7.5 at 25° C., 250 mM NaCl, 3 mM MgCl2, and purine concentrations as indicated in wild-type aptamer. Unless stated otherwise, Mg^2+ concentration in the buffer was maintained at 3 mM in all experiments. The buffer in mutant m1 contained 5 mm Mg^2+ and 1 μM G, and in m3 contained 5 mM Mg^2+ and 200 nM Guanine. For the remaining m2, m4, m5 and m6 mutants, the buffer in single-molecule experiments was supplemented only with 3 mM Mg^2+ and 200 nM Guanine.
In the force-ramp experiment, the trap was moved away (pull cycle) from the micropipette at 200 nm/sec, which corresponded to a loading rate of 7-8 pN/sec. This movement of the trap exerted a tension at the ends of the tethered RNA aptamer. […] In the constant-force (CF) experiment, the RNA was held at a preset force (FIG. 6A). The loading rate in CF experiments was zero. The preset force typically fluctuated around the mean with standard deviation ±0.15 pN. […]

[2] = Isothermal titration calorimetry (ITC); format: binding; conditions: 30° C., 50 mM K^+ Hepes pH 7.5, 100 mM KCl, 10 mM MgCl2, read-out: KD for guanine
Protocol: For ITC experiments, wild-type G-aptamer and the mutant RNAs were synthesized by in vitro transcription of the DNA template and purified by denaturing polyacrylamide gel electrophoresis (PAGE). The ligand guanine was introduced in the syringe, while the RNA into the sample cell at a final concentration of 10 μM and 1 μM respectively. The concentrations were determined by absorbance reading using ε260=12010 M^−1 cm^−1 (guanine) and ε260=711400 M^−1 cm^−1 (RNA). The buffer in the syringe and the sample cell contained 50 mM K^+ Hepes (pH 7.5), 100 mM KCl, and 10 mM MgCl2. Binding reactions were performed at 30° C. on a MicroCal iTC200 instrument (Malvern) with a reference power of 6 μcal/sec, an initial delay of 60 secs and a stirring speed of 750 rpm. Guanine was titrated into the sample cell in 16 injections (2.5 μl each). The injection rate was 0.5 μl/sec and the spacing between the injections was maintained at 120 sec. Data was baseline corrected and fitted to a single-site binding model to obtain association constant (KA), stoichiometry (n) and binding enthalpy, ΔH. The dissociation constant (KD) and the binding free energy, ΔG was obtained from the fitted parameters using the following relations. All data analysis was performed using the Origin ITC software.
The ITC results are reported as mean±standard deviation from three independent experiments.

[3] = transition BA (P1 folding), 200 nM G (rates at 8.5 pN)
[4] = transition BA (P1 folding), F 8.5 pN, 200 nM G
[5] = transition BA (P1 folding), F 8.5 pN, 200 nM G, no helix width adjustment
[6] = transition BA (P1 folding), from data at 8.5 pN, 200 nM G
[7] = transition C′B (L2-L3 folding), 200 nM G (rates at 8.5 pN)
[8] = transition C′B (L2-L3 folding), F 8.5 pN, 200 nM G
[9] = transition C′B (L2-L3 folding), from data at 8.5 pN, 200 nM G
[10] = transition DC (P3 folding), 200 nM G (rates at 13 pN)
[11] = transition DC (P3 folding), F 13 pN, 200 nM G
[12] = transition DC (P3 folding), from data at 13 pN, 200 nM G
[13] = transition ED (P2 folding), 200 nM G (rates at 13 pN)
[14] = transition ED (P2 folding), F 13 pN, 200 nM G
[15] = transition ED (P2 folding), from data at 13 pN, 200 nM G
[16] = transition BA (P1 folding), F 8.0 pN, 1 uM G
[17] = transition C′B (L2-L3 folding), F 8.0 pN, 1 uM G
[18] = transition DC (P3 folding), F 12.0 pN, 1 uM G
[19] = transition ED (P2 folding), F 13.5 pN, 1 uM G

Molecule	Equilibrium force F^eq [1, 3] [pN]	Folding rate kf [1, 4] [s⁻¹]	Unfolding rate ku [1, 4] [s⁻¹]	Transition distance ΔX [1, 5] [nm]	ΔG (0) [1, 6]	Equilibrium force F^eq [1, 7] [pN]	Folding rate kf [1, 8] [s⁻¹]	Transition distance ΔX [1, 8] [nm]	Unfolding rate ku [1, 8] [s⁻¹]	ΔG (0) [1, 9] [kBT]	Equilibrium force F^eq [1, 10] [pN]	Folding rate kf [1, 11] [s⁻¹]	Transition distance ΔX [1, 11] [nm]	Unfolding rate ku [1, 11] [s⁻¹]	ΔG (0) [1, 12]	Equilibrium force F^eq [1, 13] [pN]	Folding rate kf [1, 14] [s⁻¹]	Transition distance ΔX [1, 14] [nm]	Unfolding rate ku [1, 14] [s⁻¹]	Kd [2] [nM]	further results
B1	8.0 ± 0.1	0.33 ± 0.02	1.0 ± 0.1	9.5 ± 0.3	−12.5 kBT and −12.5 ± 0.6 kBT	7.6 ± 0.1	0.22 ± 0.02	3.4 ± 0.1	0.56 ± 0.04	−6.1 ± 0.2	13.0 ± 0.02	16.3 ± 0.3	7.8 ± 0.2	16.5 ± 0.4	−17.3 ± 0.6 kBT	13.9 ± 0.01	34.8 ± 1.1	7.2 ± 0.2	8.8 ± 0.2	3.59 ± 0.05	L2-L3 kissing rate reduced versus wild-type ([1]; C′B folding rate): 4.5 fold; Barrier ΔGkiss^‡ prior to the L2-L3 interactions ([1]; free energy landscape transformed to zero force): ~8.4 kBT; Increase of P3 stability ΔG(0) versus wild-type ([1]; transition DC): 1 kT; ΔG (0) [1, 15]: −17.6 ± 0.6 kBT
B2	–	–	–	–	–	–	–	–	–	–	–	–	–	–	–	–	–	–	–	16.9 ± 1	Equilibrium force F^eq ([1]; transition BA (P1 folding), 1 uM G (rates at 8.0 pN)): 7.4 ± 0.2 pN; Folding rate kf [1, 16]: 0.5 ± 0.08 s⁻¹; Transition distance ΔX [1, 16]: 9.6 ± 0.3 nm; Unfolding rate ku [1, 16]: 1.7 ± 0.4 s⁻¹; ΔG (0) ([1]; transition BA (P1 folding), from data at 8.0 pN, 1 uM G): −11.8 kBT and −11.8 ± 0.6 kBT; Equilibrium force F^eq ([1]; transition C′B (L2-L3 folding), 1 uM G (rates at 8.0 pN)): 8.1 ± 0.4 pN; Folding rate kf [1, 17]: 0.9 ± 0.2 s⁻¹; Transition distance ΔX [1, 17]: 3.5 ± 0.2 nm; Unfolding rate ku [1, 17]: 1.2 ± 0.2 s⁻¹; ΔG (0) ([1]; transition C′B (L2-L3 folding), from data at 8.0 pN, 1 uM G): −6.5 kBT and −6.5 ± 0.5 kBT; Equilibrium force F^eq ([1]; transition DC (P3 folding), 1 uM G (rates at 12.0 pN)): 11.8 ± 0.05 pN; Folding rate kf [1, 18]: 16.6 ± 0.5 s⁻¹; Transition distance ΔX [1, 18]: 7.6 ± 0.2 nm; Unfolding rate ku [1, 18]: 28.3 ± 1.0 s⁻¹; ΔG (0) ([1]; transition DC (P3 folding), from data at 12.0 pN, 1 uM G): −14.8 ± 0.6 kBT; Equilibrium force F^eq ([1]; transition ED (P2 folding), 1 uM G (rates at 13.5 pN)): 13.3 ± 0.05 pN; Folding rate kf [1, 19]: 10.0 ± 0.3 s⁻¹; Transition distance ΔX [1, 19]: 7.1 ± 0.3 nm; Unfolding rate ku [1, 19]: 20.1 ± 0.5 s⁻¹; ΔG (0) ([1]; transition ED (P2 folding), from data at 13.5 pN, 1 uM G): −15.8 ± 1.0 kBT
B3	8.3 ± 0.3	0.7 ± 0.02	1.0 ± 0.1	9.8 ± 0.2	−13.9 ± 0.4 kBT	7.2 ± 0.5	7.5 ± 0.2	3.5 ± 0.2	23.9 ± 0.6	−6.1 ± 0.4	10.6 ± 0.1	1.1 ± 0.03	7.3 ± 0.1	115.4 ± 4.4	−11.1 kBT and −11.1 ± 0.3 kBT	13.8 ± 0.03	23.9 ± 0.5	7.1 ± 0.1	7.2 ± 0.2	6.7 ± 0.63	L2-L3 kissing faster than wild-type ([1]; C′B folding rate): 8.33 times; ΔG (0) [1, 15]: −17.1 ± 0.3 kBT
